From the RNAGym collection of RNA variant scans (doi:10.7554/elife.80360) come the findings set out here.

To fix the notation:
B1: Hairpin Ribozyme (parent)
chain: GUCCUCUUUCACGUGCGCGUGAAAGAGAGAAGUGAACCAGAGAAACACACGUUGUGGUAUAUUACCUGGUA

Variants of B1 are the subject of this data set. The data set is described as follows: self-cleavage, relative activity (ratio to wild type); higher = more cleavage; co-transcriptional.
Consider A28C A59G, for which the self-cleavage turned out to be 0.117.
The result for C46G U70C reads 0.203; that for A26U A64U, 0.175.
In the case of A26U G69C it was 0.247.
On to G57U U67A, for which the self-cleavage worked out at 0.166.
Turning to A43G G69A, the self-cleavage turned out to be 0.0947.
For C4U G56A, the self-cleavage stood at 0.161.
Regarding U60C, the self-cleavage stood at 1.16.
For the variant A61G U67A, the self-cleavage amounted to 0.328.
In the case of C16A G56U it was 0.151; in that of U7C G25A, 0.306; in that of A28C A47C, 0.0848.
As for C3G U5C, the self-cleavage worked out at 0.132.
Regarding G19U G54C, the self-cleavage came out at 0.437.
Regarding G32A A44C, the self-cleavage was found to be 0.0922.
In the case of G32A A44U, the self-cleavage was 0.152.
As for U55C G69U, the self-cleavage came out at 0.159.
As to G19A G40U, the self-cleavage is 0.179.
Regarding U8C U62A, the self-cleavage was 0.192.
As to U60A A64G, the self-cleavage turned out to be 0.353.
Take A35C G42A: the self-cleavage amounted to 0.129.
Turning to C18U A31U, the self-cleavage amounted to 0.112.
Take C16G G69C: the self-cleavage stood at 0.197.
Take G27C A35U: the self-cleavage amounted to 0.0854.
In the case of G21U A59C, the self-cleavage came to 0.148.
As for U33C G51C, the self-cleavage worked out at 0.0825.
Consider G13U A71U, for which the self-cleavage was 0.684.
Consider A39G U58A, for which the self-cleavage is 0.217.
For A45C A71G, the self-cleavage came to 0.154.
On to C50A C66U, for which the self-cleavage stood at 0.15.
In the case of G13C U52G it was 0.76; in that of U33G A61U, 0.0863; in that of U33G A61G, 0.229.
Take A23U A24C: the self-cleavage worked out at 1.02.
G51C U63C: the self-cleavage turned out to be 0.1.
Turning to G25A G57U, the self-cleavage is 0.113.
Take G1U A36C: the self-cleavage is 0.143.
Take U55C U62C: the self-cleavage stood at 0.315.
The result for A11C A24G reads 0.539.
Turning to C18A A23C, the self-cleavage was found to be 0.863.
In the case of A44C A45U it was 0.0709; in that of U20G G32C, 0.105.
In the case of C37A C48G, the self-cleavage was 0.143.
As for A59G C66U, the self-cleavage was 0.0625.
U52C G54U: the self-cleavage is 0.327.
As for U8G U67A, the self-cleavage was determined as 0.145.
In the case of U8G U67C it was 0.189.
A23C C66G: the self-cleavage amounted to 0.166.
Consider A35U U55C, for which the self-cleavage was 0.274.
Take A41C G56C: the self-cleavage stood at 0.237.
For U9C C18U, the self-cleavage worked out at 1.02.
Consider A36C C38A, for which the self-cleavage is 0.253.
Regarding C37A A39C, the self-cleavage worked out at 0.128.
For the variant A24C C48G, the self-cleavage was determined as 0.133.
With C6G G69A, the self-cleavage is 0.251.
The result for G21U G25A reads 0.252.
As for G32U C48U, the self-cleavage was found to be 0.15.
With U14G A26C, the self-cleavage worked out at 0.522.
With A11C U14A, the self-cleavage came out at 0.533.
Take G40C G57U: the self-cleavage turned out to be 0.106.
With A30G C65G, the self-cleavage was determined as 0.204.
As for U20A A49G, the self-cleavage came out at 0.437.
In the case of A43U G51C it was 0.241.
In the case of C16A A26U it was 0.607.
Regarding A22C C65U, the self-cleavage is 0.303.
The result for G1C G56U reads 0.293; that for A47G A64G, 0.0949; that for C37G U53C, 0.586.
The result for G56U A71G reads 0.127; that for G21C U33A, 0.133.
In the case of A22C G40C it was 0.123; in that of U7A C66G, 0.146.
Regarding A23G A71G, the self-cleavage turned out to be 0.975.
On to G57A A64G, for which the self-cleavage worked out at 0.131.
In the case of A64C U67G it was 0.147; in that of C16U C46G, 0.141; in that of G13A C18A, 1.02.
As for G34U G51U, the self-cleavage stood at 1.04.
Turning to C3A C46G, the self-cleavage was determined as 0.105.
In the case of U8G A49C, the self-cleavage turned out to be 0.108.
Regarding A30G U58C, the self-cleavage stood at 0.0836.
As to A26C A30C, the self-cleavage was 0.25.
The result for A23U G57C reads 0.211.
In the case of C18A G29U, the self-cleavage was 0.198.
With U7A A61C, the self-cleavage is 0.188.
As to G25A A39U, the self-cleavage stood at 0.285.
In the case of U8A A23G, the self-cleavage amounted to 0.808.
In the case of U7A U9G it was 0.579.
As for G42C C66U, the self-cleavage worked out at 0.13.
For U7C A47U, the self-cleavage turned out to be 0.0995.
Consider C46U U58C, for which the self-cleavage is 0.221.
As to G29U A39G, the self-cleavage came out at 0.0986.
On to U58C A71U, for which the self-cleavage turned out to be 0.935.
The result for U7C G51C reads 0.489; that for G1C C65G, 0.148.
On to U2A A61U, for which the self-cleavage came out at 0.159.
For U7C G54U, the self-cleavage came to 0.242.
Take G13A G56C: the self-cleavage was determined as 0.119.
For A31G A64G, the self-cleavage worked out at 0.284.
For the variant A28C A45G, the self-cleavage amounted to 0.201.
On to C18U U60A, for which the self-cleavage amounted to 0.883.
A36G U55A: the self-cleavage was 0.301.
On to C48G G69A, for which the self-cleavage was 0.224.
Take U2G C4U: the self-cleavage stood at 0.15.
In the case of G1C U58C it was 0.16; in that of G21U A28U, 0.688.
Take C10A G34A: the self-cleavage came to 0.92.
Turning to C18G A64G, the self-cleavage turned out to be 0.463.
With U5A G32A, the self-cleavage was 0.158.
Turning to G51U A61G, the self-cleavage came out at 0.112.
The result for C3G G21U reads 0.252.
In the case of C50A it was 0.283; in that of G1A G19U, 0.13.
Regarding C37A G57A, the self-cleavage came to 0.145.
For the variant G1C G32U, the self-cleavage was 0.171.
Consider C16G A45C, for which the self-cleavage was 0.152.
As for G56U G68A, the self-cleavage is 0.183.
A45G G54C: the self-cleavage turned out to be 0.0826.
Turning to C6U A39U, the self-cleavage was found to be 0.381.
In the case of C16A C18G it was 0.841.
In the case of U8G G40U, the self-cleavage came out at 0.132.
On to G34C A64U, for which the self-cleavage is 0.442.
With A11G A64G, the self-cleavage is 0.507.
For the variant C18U A26G, the self-cleavage stood at 0.975.
In the case of G17C C66A, the self-cleavage was 0.154.
U7C G19C: the self-cleavage was determined as 0.683.
As for A36C C50A, the self-cleavage was found to be 0.0511.
With C4U A11G, the self-cleavage was 0.425.
With U2C A43U, the self-cleavage stood at 0.177.
Take C6U A44G: the self-cleavage is 0.132.
Take C66G G69C: the self-cleavage was found to be 0.145.
The result for U7G A35C reads 0.757; that for U9C A31C, 0.184; that for G51A U55C, 0.405.
For the variant A26C U52C, the self-cleavage amounted to 0.811.
Regarding U60G U62G, the self-cleavage turned out to be 0.222.
In the case of C4G G51U, the self-cleavage is 0.223.
As to G13C A61G, the self-cleavage was found to be 0.164.
In the case of A28G C66G it was 0.0858; in that of U7G G29U, 0.136; in that of U14C U60C, 1.13.
In the case of A44U A64U, the self-cleavage was 0.203.
On to C16G U20G, for which the self-cleavage stood at 0.661.
Regarding G51A U63A, the self-cleavage was 0.175.
A24G U67G: the self-cleavage was 0.263.
On to A22U U33C, for which the self-cleavage came out at 0.235.
For the variant C4A U20G, the self-cleavage worked out at 0.259.
As to C10U A11C, the self-cleavage stood at 0.696.
In the case of C46G G68A, the self-cleavage stood at 0.123.
For A44G U52C, the self-cleavage was found to be 0.223.
The result for A24U G54U reads 0.476; that for A35C U55G, 0.27.
For the variant A39G A59C, the self-cleavage is 0.122.
As for A35U A43U, the self-cleavage worked out at 0.0408.
For C66A U70C, the self-cleavage is 0.305.
Regarding C6A A28G, the self-cleavage came out at 0.811.
As for U7C C65U, the self-cleavage was 0.254.
For the variant U8C U52G, the self-cleavage was determined as 0.709.
U14G A49U: the self-cleavage was found to be 0.0246.
Regarding U2G G27A, the self-cleavage is 0.139.
The result for G51C G68U reads 0.227.
For the variant A11G C46G, the self-cleavage turned out to be 0.0993.
In the case of U9C C12G it was 0.502; in that of G25C A26U, 0.248; in that of C6G G40U, 0.103.
Take G51C A59C: the self-cleavage was 0.14.
As to G17A U70G, the self-cleavage was determined as 0.918.
